Biological target: human IL-8 (UniProt P10145)
Sequence (P10145 28-99): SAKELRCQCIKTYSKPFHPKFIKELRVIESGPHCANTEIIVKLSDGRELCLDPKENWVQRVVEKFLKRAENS

SpyCEP expressed in the lumen of E. coli OMVs (OMVs containing SpyCEP)
hydrolysis of IL-8 (18% SDS-PAGE with silver staining): IL-8 was almost completely cleaved after 2 hours incubation with 30 µg OMVs containing SpyCEP
